Test results taken from US12338277.

Legend:
Test in all cases: cell-based or functional assay
[1] = molecular target: HIV-1 Env of pseudovirus 263-8 (HIV-1)
[2] = molecular target: HIV-1 Env of pseudovirus 6811.v7.c18 (HIV-1)
[3] = molecular target: HIV-1 Env of pseudovirus 7030102001E5(Rev-) (HIV-1)
[4] = molecular target: HIV-1 Env of pseudovirus 928-28 (HIV-1)
[5] = molecular target: HIV-1 Env of pseudovirus A07412M1.vrc12 (HIV-1)
[6] = molecular target: HIV-1 Env of pseudovirus BJOX025000.01.1 (HIV-1)
[7] = molecular target: HIV-1 Env of pseudovirus C1080.c03 (HIV-1)
[8] = molecular target: HIV-1 Env of pseudovirus C4118.c09 (HIV-1)
[9] = molecular target: HIV-1 Env of pseudovirus CNE20 (HIV-1)
[10] = molecular target: HIV-1 Env of pseudovirus CNE21 (HIV-1)
[11] = molecular target: HIV-1 Env of pseudovirus Ce0393_C3 (HIV-1)
[12] = molecular target: HIV-1 Env of pseudovirus Ce703010054_2A2 (HIV-1)
[13] = molecular target: HIV-1 Env of pseudovirus Du172.17 (HIV-1)
[14] = molecular target: HIV-1 Env of pseudovirus HIV-0013095-2.11 (HIV-1)
[15] = molecular target: HIV-1 Env of pseudovirus HIV-16845-2.22 (HIV-1)
[16] = molecular target: HIV-1 Env of pseudovirus PVO.4 (HIV-1)
[17] = molecular target: HIV-1 Env of pseudovirus Q769.d22 (HIV-1)
[18] = molecular target: HIV-1 Env of pseudovirus R1166.c01 (HIV-1)
[19] = molecular target: HIV-1 Env of pseudovirus R2184.c04 (HIV-1)
[20] = molecular target: HIV-1 Env of pseudovirus T278-50 (HIV-1)
[21] = molecular target: HIV-1 Env of pseudovirus X2131_C1_85 (HIV-1)
[22] = molecular target: HIV-1 envelope of pseudovirus 191084 B7-19 (HIV-1)
[23] = molecular target: HIV-1 envelope of pseudovirus 235-47 (HIV-1)
[24] = molecular target: HIV-1 envelope of pseudovirus 263-8 (HIV-1)
[25] = molecular target: HIV-1 envelope of pseudovirus 3415.v1.c1 (HIV-1)
[26] = molecular target: HIV-1 envelope of pseudovirus 3817.v2.c59 (HIV-1)
[27] = molecular target: HIV-1 envelope of pseudovirus 6240_08_TA5_4622 (HIV-1)
[28] = molecular target: HIV-1 envelope of pseudovirus 6244_13_85_4576 (HIV-1)
[29] = molecular target: HIV-1 envelope of pseudovirus 6535.3 (HIV-1)
[30] = molecular target: HIV-1 envelope of pseudovirus 6952.v1.c20 (HIV-1)
[31] = molecular target: HIV-1 envelope of pseudovirus BF1266.431a (HIV-1)
[32] = molecular target: HIV-1 envelope of pseudovirus C2101.c01 (HIV-1)
[33] = molecular target: HIV-1 envelope of pseudovirus CAP45.2.00.G3 (HIV-1)
[34] = molecular target: HIV-1 envelope of pseudovirus CNE30 (HIV-1)
[35] = molecular target: HIV-1 envelope of pseudovirus CNE52 (HIV-1)
[36] = molecular target: HIV-1 envelope of pseudovirus Du156.12 (HIV-1)
[37] = molecular target: HIV-1 envelope of pseudovirus HIV-0013095-2.11 (HIV-1)
[38] = molecular target: HIV-1 envelope of pseudovirus HIV-16845-2.22 (HIV-1)
[39] = molecular target: HIV-1 envelope of pseudovirus Q451.e2 (HIV-1)
[40] = molecular target: HIV-1 envelope of pseudovirus Q842.d12 (HIV-1)
[41] = molecular target: HIV-1 envelope of pseudovirus R2184.c04 (HIV-1)
[42] = molecular target: HIV-1 envelope of pseudovirus REJO4541.67 (HIV-1)
[43] = molecular target: HIV-1 envelope of pseudovirus SC422661.8 (HIV-1)
[44] = molecular target: HIV-1 envelope spike of pseudovirus 6535.3 (HIV-1)
[45] = molecular target: HIV-1 envelope spike of pseudovirus PVO.4 (HIV-1)
[46] = molecular target: HIV-1 envelope spike of pseudovirus QH0692.42 (HIV-1)
[47] = molecular target: HIV-1 envelope spike of pseudovirus SS1196.1 (HIV-1)
[48] = molecular target: HIV-1 envelope spike of pseudovirus TRJO4551.58 (HIV-1)
[49] = molecular target: HIV-1 envelope spike of pseudovirus YU-2 (HIV-1) (UniProt P35961)
HIV-1 envelope spike of pseudovirus YU-2 (HIV-1), sequence (P35961 32-843): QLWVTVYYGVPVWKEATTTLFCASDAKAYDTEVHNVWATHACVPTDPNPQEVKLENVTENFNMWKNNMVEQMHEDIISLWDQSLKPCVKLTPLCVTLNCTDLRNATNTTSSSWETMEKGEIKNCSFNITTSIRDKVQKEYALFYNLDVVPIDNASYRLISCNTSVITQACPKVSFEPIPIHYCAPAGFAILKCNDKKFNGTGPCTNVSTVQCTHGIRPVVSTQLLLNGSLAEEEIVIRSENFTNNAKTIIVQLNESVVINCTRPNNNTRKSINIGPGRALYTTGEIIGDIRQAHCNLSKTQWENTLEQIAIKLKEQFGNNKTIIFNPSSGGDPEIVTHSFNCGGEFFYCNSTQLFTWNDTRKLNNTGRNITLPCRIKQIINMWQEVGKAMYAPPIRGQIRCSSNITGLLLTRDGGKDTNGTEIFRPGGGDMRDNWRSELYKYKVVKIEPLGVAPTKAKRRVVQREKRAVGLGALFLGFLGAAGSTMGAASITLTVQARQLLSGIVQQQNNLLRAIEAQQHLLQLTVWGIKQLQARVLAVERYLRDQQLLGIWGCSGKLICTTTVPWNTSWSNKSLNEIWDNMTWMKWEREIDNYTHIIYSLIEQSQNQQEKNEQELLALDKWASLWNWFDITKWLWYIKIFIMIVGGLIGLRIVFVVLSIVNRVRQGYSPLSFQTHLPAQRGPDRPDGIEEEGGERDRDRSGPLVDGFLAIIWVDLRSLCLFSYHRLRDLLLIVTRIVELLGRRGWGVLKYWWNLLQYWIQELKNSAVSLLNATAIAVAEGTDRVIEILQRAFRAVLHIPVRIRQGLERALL

10-1074 (antibody), sequence (VH): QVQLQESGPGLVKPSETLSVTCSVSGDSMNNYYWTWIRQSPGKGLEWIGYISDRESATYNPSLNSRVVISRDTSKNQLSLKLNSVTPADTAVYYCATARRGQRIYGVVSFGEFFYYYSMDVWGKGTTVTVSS
10-1074 (antibody), sequence (V domain): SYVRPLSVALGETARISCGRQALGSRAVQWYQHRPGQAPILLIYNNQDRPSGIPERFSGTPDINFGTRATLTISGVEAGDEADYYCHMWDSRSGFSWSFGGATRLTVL

10-1074 (antibody)
IC80 (TZM-bl neutralization) [1]: 6.53 µg/mL | IC80 (TZM-bl neutralization) [2]: 0.01 µg/mL | IC80 (TZM-bl neutralization) [3]: 0.021 µg/mL | IC80 (TZM-bl neutralization) [4]: 4.7 µg/mL | IC80 (TZM-bl neutralization) [5]: 0.048 µg/mL | IC80 (TZM-bl neutralization) [6]: > 50 µg/mL | IC80 (TZM-bl neutralization) [7]: > 50 µg/mL | IC80 (TZM-bl neutralization) [8]: > 50 µg/mL | IC80 (TZM-bl neutralization) [9]: 0.005 µg/mL | IC80 (TZM-bl neutralization) [10]: 0.181 µg/mL | IC80 (TZM-bl neutralization) [11]: > 50 µg/mL | IC80 (TZM-bl neutralization) [12]: > 50 µg/mL | IC80 (TZM-bl neutralization) [13]: 0.43 µg/mL | IC80 (TZM-bl neutralization) [14]: > 50 µg/mL | IC80 (TZM-bl neutralization) [15]: 5.83 µg/mL | IC80 (TZM-bl neutralization) [16]: 0.36 µg/mL | IC80 (TZM-bl neutralization) [17]: > 50 µg/mL | IC80 (TZM-bl neutralization) [18]: > 50 µg/mL | IC80 (TZM-bl neutralization) [19]: > 50 µg/mL | IC80 (TZM-bl neutralization) [20]: 18.3 µg/mL | IC80 (TZM-bl neutralization) [21]: 0.064 µg/mL | IC50 (TZM-bl neutralization) [22]: 0.032 µg/mL | IC50 (TZM-bl neutralization) [23]: 0.05 µg/mL | IC50 (TZM-bl neutralization) [24]: 0.666 µg/mL | IC50 (TZM-bl neutralization) [25]: > 50 µg/mL | IC50 (TZM-bl neutralization) [26]: 3.15 µg/mL | IC50 (TZM-bl neutralization) [27]: 0.068 µg/mL | IC50 (TZM-bl neutralization) [28]: 0.202 µg/mL | IC50 (TZM-bl neutralization) [29]: 0.014 µg/mL | IC50 (TZM-bl neutralization) [30]: 0.037 µg/mL | IC50 (TZM-bl neutralization) [31]: > 50 µg/mL | IC50 (TZM-bl neutralization) [32]: > 50 µg/mL | IC50 (TZM-bl neutralization) [33]: > 50 µg/mL | IC50 (TZM-bl neutralization) [34]: 0.363 µg/mL | IC50 (TZM-bl neutralization) [35]: 1.23 µg/mL | IC50 (TZM-bl neutralization) [36]: 0.015 µg/mL | IC50 (TZM-bl neutralization) [37]: > 50 µg/mL | IC50 (TZM-bl neutralization) [38]: 1.17 µg/mL | IC50 (TZM-bl neutralization) [39]: > 50 µg/mL | IC50 (TZM-bl neutralization) [40]: > 50 µg/mL | IC50 (TZM-bl neutralization) [41]: > 50 µg/mL | IC50 (TZM-bl neutralization) [42]: > 50 µg/mL | IC50 (TZM-bl neutralization) [43]: 0.091 µg/mL | IC50 (TZM-bl neutralization assay) [44]: 0.007 µg/mL | IC80 (TZM-bl neutralization assay) [44]: 0.044 µg/mL | IC50 (TZM-bl neutralization assay) [45]: 0.178 µg/mL | IC80 (TZM-bl neutralization assay) [45]: 0.766 µg/mL | IC50 (TZM-bl neutralization assay) [46]: 0.259 µg/mL | IC80 (TZM-bl neutralization assay) [46]: 0.861 µg/mL | IC50 (TZM-bl neutralization assay) [47]: 0.01 µg/mL | IC80 (TZM-bl neutralization assay) [47]: 0.127 µg/mL | IC50 (TZM-bl neutralization assay) [48]: 0.17 µg/mL | IC80 (TZM-bl neutralization assay) [48]: 0.693 µg/mL | IC50 (TZM-bl neutralization assay) [49]: 0.143 µg/mL | IC80 (TZM-bl neutralization assay) [49]: 0.398 µg/mL
